Data on ten molecules can be found in PMC11574045, “A cofactor-induced repressive type of transcription factor condensation can be induced by synthetic peptides to suppress tumorigenesis” (The EMBO Journal, 2024).

The assay has as its system HEK293FT cells transfected with TF library. The assay is described as follows: Screening of TF condensates based on fluorescent puncta. The assay is classed as cell-based. As to conditions: Figure 1B numerical data; TF library screen, one value per transcriptional factor. Put shortly: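 Cells were seeded onto plasmid/PEI-loaded wells (plasmid 1.6 μg/ml final) and grown 60 h. Medium with or without glucose followed for 12 h. Fixed, permeabilized cells were stained against Flag or GAL4 tags, and condensate puncta were quantified from 50 random fields per well.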

B1: NEUROG2 (protein, UniProt Q9H2A3 1-272, looked up)
Neurogenin-2: MFVKSETLELKEEEDVLVLLGSASPALAALTPLSSSADEEEEEEPGASGGARRQRGAEAGQGARGGVAAGAEGCRPARLLGLVHDCKRRPSRARAVSRGAKTAETVQRIKKTRRLKANNRERNRMHNLNAALDALREVLPTFPEDAKLTKIETLRFAHNYIWALTETLRLADHCGGGGGGLPGALFSEAVLLSPGGASAALSSSGDSPSPASTWSCTNSPAPSSSVSSNSTSPYSCTLSPASPAGSDMDYWQPPPPDKHRYAPHLPIARDCI
B1: the “Z score of condensed fraction” value is given as -1.044.

B2: NFATX (protein, UniProt Q12968 2-1075, looked up)
Nuclear factor of activated …: TTANCGAHDELDFKLVFGEDGAPAPPPPGSRPADLEPDDCASIYIFNVDPPPSTLTTPLCLPHHGLPSHSSVLSPSFQLQSHKNYEGTCEIPESKYSPLGGPKPFECPSIQITSISPNCHQELDAHEDDLQINDPEREFLERPSRDHLYLPLEPSYRESSLSPSPASSISSRSWFSDASSCESLSHIYDDVDSELNEAAARFTLGSPLTSPGGSPGGCPGEETWHQQYGLGHSLSPRQSPCHSPRSSVTDENWLSPRPASGPSSRPTSPCGKRRHSSAEVCYAGSLSPHHSPVPSPGHSPRGSVTEDTWLNASVHGGSGLGPAVFPFQYCVETDIPLKTRKTSEDQAAILPGKLELCSDDQGSLSPARETSIDDGLGSQYPLKKDSCGDQFLSVPSPFTWSKPKPGHTPIFRTSSLPPLDWPLPAHFGQCELKIEVQPKTHHRAHYETEGSRGAVKASTGGHPVVKLLGYNEKPINLQMFIGTADDRYLRPHAFYQVHRITGKTVATASQEIIIASTKVLEIPLLPENNMSASIDCAGILKLRNSDIELRKGETDIGRKNTRVRLVFRVHIPQPSGKVLSLQIASIPVECSQRSAQELPHIEKYSINSCSVNGGHEMVVTGSNFLPESKIIFLEKGQDGRPQWEVEGKIIREKCQGAHIVLEVPPYHNPAVTAAVQVHFYLCNGKRKKSQSQRFTYTPVLMKQEHREEIDLSSVPSLPVPHPAQTQRPSSDSGCSHDSVLSGQRSLICSIPQTYASMVTSSHLPQLQCRDESVSKEQHMIPSPIVHQPFQVTPTPPVGSSYQPMQTNVVYNGPTCLPINAASSQEFDSVLFQQDATLSGLVNLGCQPLSSIPFHSSNSGSTGHLLAHTPHSVHTLPHLQSMGYHCSNTGQRSLSSPVADQITGQPSSQLQPITYGPSHSGSATTASPAASHPLASSPLSGPPSPQLQPMPYQSPSSGTASSPSPATRMHSGQHSTQAQSTGQGGLSAPSSLICHSLCDPASFPPDGATVSIKPEPEDREPNFATIGLQDITLDDVNEIIGRDMSQISVSQGAGVSRQAPLPSPESLDLGRSDGL
On to B2, for which the “Z score of condensed fraction” value was -0.5752.

B3: NEUROD3 (protein, UniProt Q92886 1-237, looked up)
Neurogenin-1: MPARLETCISDLDCASSSGSDLSGFLTDEEDCARLQQAASASGPPAPARRGAPNISRASEVPGAQDDEQERRRRRGRTRVRSEALLHSLRRSRRVKANDRERNRMHNLNAALDALRSVLPSFPDDTKLTKIETLRFAYNYIWALAETLRLADQGLPGGGARERLLPPQCVPCLPGPPSPASDAESWGSGAAAASPLSDPSSPAASEDFTYRPGDPVFSFPSLPKDLLHTTPCFIPYH
Take B3: the “Z score of condensed fraction” value is given as -0.2856.

B4: NFKB2 (protein, UniProt Q00653 1-900, looked up)
Nuclear factor NF-kappa-B …: MESCYNPGLDGIIEYDDFKLNSSIVEPKEPAPETADGPYLVIVEQPKQRGFRFRYGCEGPSHGGLPGASSEKGRKTYPTVKICNYEGPAKIEVDLVTHSDPPRAHAHSLVGKQCSELGICAVSVGPKDMTAQFNNLGVLHVTKKNMMGTMIQKLQRQRLRSRPQGLTEAEQRELEQEAKELKKVMDLSIVRLRFSAFLRASDGSFSLPLKPVISQPIHDSKSPGASNLKISRMDKTAGSVRGGDEVYLLCDKVQKDDIEVRFYEDDENGWQAFGDFSPTDVHKQYAIVFRTPPYHKMKIERPVTVFLQLKRKRGGDVSDSKQFTYYPLVEDKEEVQRKRRKALPTFSQPFGGGSHMGGGSGGAAGGYGGAGGGGSLGFFPSSLAYSPYQSGAGPMGCYPGGGGGAQMAATVPSRDSGEEAAEPSAPSRTPQCEPQAPEMLQRAREYNARLFGLAQRSARALLDYGVTADARALLAGQRHLLTAQDENGDTPLHLAIIHGQTSVIEQIVYVIHHAQDLGVVNLTNHLHQTPLHLAVITGQTSVVSFLLRVGADPALLDRHGDSAMHLALRAGAGAPELLRALLQSGAPAVPQLLHMPDFEGLYPVHLAVRARSPECLDLLVDSGAEVEATERQGGRTALHLATEMEELGLVTHLVTKLRANVNARTFAGNTPLHLAAGLGYPTLTRLLLKAGADIHAENEEPLCPLPSPPTSDSDSDSEGPEKDTRSSFRGHTPLDLTCSTKVKTLLLNAAQNTMEPPLTPPSPAGPGLSLGDTALQNLEQLLDGPEAQGSWAELAERLGLRSLVDTYRQTTSPSGSLLRSYELAGGDLAGLLEALSDMGLEEGVRLLRGPETRDKLPSTAEVKEDSAYGSQSVEQEAEKLGPPPEPPGGLCHGHPQPQVH
B4: the “Z score of condensed fraction” value amounted to 0.04386.

B5: NEUROD4 (protein, UniProt Q9HD90 1-331, looked up)
Neurogenic differentiation …: MSKTFVKSKEMGELVNTPSWMDKGLGSQNEVKEEESRPGTYGMLSSLTEEHDSIEEEEEEEEDGEKPKRRGPKKKKMTKARLERFRARRVKANARERTRMHGLNDALDNLRRVMPCYSKTQKLSKIETLRLARNYIWALSEVLETGQTPEGKGFVEMLCKGLSQPTSNLVAGCLQLGPQSVLLEKHEDKSPICDSAISVHNFNYQSPGLPSPPYGHMETHLLHLKPQVFKSLGESSFGSHLPDCSTPPYEGPLTPPLSISGNFSLKQDGSPDLEKSYSFMPHYPSSSLSSGHVHSTPFQAGTPRYDVPIDMSYDSYPHHGIGTQLNTVFTE
In the case of B5, the “Z score of condensed fraction” value was found to be 0.614.

B6: NFATC1 (protein, UniProt O95644 1-943, looked up)
Nuclear factor of activated …: MPSTSFPVPSKFPLGPAAAVFGRGETLGPAPRAGGTMKSAEEEHYGYASSNVSPALPLPTAHSTLPAPCHNLQTSTPGIIPPADHPSGYGAALDGGPAGYFLSSGHTRPDGAPALESPRIEITSCLGLYHNNNQFFHDVEVEDVLPSSKRSPSTATLSLPSLEAYRDPSCLSPASSLSSRSCNSEASSYESNYSYPYASPQTSPWQSPCVSPKTTDPEEGFPRGLGACTLLGSPRHSPSTSPRASVTEESWLGARSSRPASPCNKRKYSLNGRQPPYSPHHSPTPSPHGSPRVSVTDDSWLGNTTQYTSSAIVAAINALTTDSSLDLGDGVPVKSRKTTLEQPPSVALKVEPVGEDLGSPPPPADFAPEDYSSFQHIRKGGFCDQYLAVPQHPYQWAKPKPLSPTSYMSPTLPALDWQLPSHSGPYELRIEVQPKSHHRAHYETEGSRGAVKASAGGHPIVQLHGYLENEPLMLQLFIGTADDRLLRPHAFYQVHRITGKTVSTTSHEAILSNTKVLEIPLLPENSMRAVIDCAGILKLRNSDIELRKGETDIGRKNTRVRLVFRVHVPQPSGRTLSLQVASNPIECSQRSAQELPLVEKQSTDSYPVVGGKKMVLSGHNFLQDSKVIFVEKAPDGHHVWEMEAKTDRDLCKPNSLVVEIPPFRNQRITSPVHVSFYVCNGKRKRSQYQRFTYLPANVPIIKTEPTDDYEPAPTCGPVSQGLSPLPRPYYSQQLAMPPDPSSCLVAGFPPCPQRSTLMPAAPGVSPKLHDLSPAAYTKGVASPGHCHLGLPQPAGEAPAVQDVPRPVATHPGSPGQPPPALLPQQVSAPPSSSCPPGLEHSLCPSSPSPPLPPATQEPTCLQPCSPACPPATGRPQHLPSTVRRDESPTAGPRLLPEVHEDGSPNLAPIPVTVKREPEELDQLYLDDVNEIIRNDLSSTSTHS
B6: the “Z score of condensed fraction” value is listed as -0.245.

B7: NFIL3 (protein, UniProt Q16649 1-462, looked up)
Nuclear factor …: MQLRKMQTVKKEQASLDASSNVDKMMVLNSALTEVSEDSTTGEELLLSEGSVGKNKSSACRRKREFIPDEKKDAMYWEKRRKNNEAAKRSREKRRLNDLVLENKLIALGEENATLKAELLSLKLKFGLISSTAYAQEIQKLSNSTAVYFQDYQTSKSNVSSFVDEHEPSMVSSSCISVIKHSPQSSLSDVSEVSSVEHTQESSVQGSCRSPENKFQIIKQEPMELESYTREPRDDRGSYTASIYQNYMGNSFSGYSHSPPLLQVNRSSSNSPRTSETDDGVVGKSSDGEDEQQVPKGPIHSPVELKHVHATVVKVPEVNSSALPHKLRIKAKAMQIKVEAFDNEFEATQKLSSPIDMTSKRHFELEKHSAPSMVHSSLTPFSVQVTNIQDWSLKSEHWHQKELSGKTQNSFKTGVVEMKDSGYKVSDPENLYLKQGIANLSAEVVSLKRLIATQPISASDSG
On to B7, for which the “Z score of condensed fraction” value is on record as -0.6996.

B8: NFKBIA (protein, UniProt P25963 1-317, looked up)
NF-kappa-B inhibitor alpha: MFQAAERPQEWAMEGPRDGLKKERLLDDRHDSGLDSMKDEEYEQMVKELQEIRLEPQEVPRGSEPWKQQLTEDGDSFLHLAIIHEEKALTMEVIRQVKGDLAFLNFQNNLQQTPLHLAVITNQPEIAEALLGAGCDPELRDFRGNTPLHLACEQGCLASVGVLTQSCTTPHLHSILKATNYNGHTCLHLASIHGYLGIVELLVSLGADVNAQEPCNGRTALHLAVDLQNPDLVSLLLKCGADVNRVTYQGYSPYQLTWGRPSTRIQQQLGQLTLENLQMLPESEDEESYDTESEFTEFTEDELPYDDCVFGGQRLTL
With B8, the “Z score of condensed fraction” value came to 0.298.

B9: ATF2 (protein, UniProt P16951 1-487, looked up)
Cyclic AMP-dependent …: MSDDKPFLCTAPGCGQRFTNEDHLAVHKHKHEMTLKFGPARNDSVIVADQTPTPTRFLKNCEEVGLFNELASPFENEFKKASEDDIKKMPLDLSPLATPIIRSKIEEPSVVETTHQDSPLPHPESTTSDEKEVPLAQTAQPTSAIVRPASLQVPNVLLTSSDSSVIIQQAVPSPTSSTVITQAPSSNRPIVPVPGPFPLLLHLPNGQTMPVAIPASITSSNVHVPAAVPLVRPVTMVPSVPGIPGPSSPQPVQSEAKMRLKAALTQQHPPVTNGDTVKGHGSGLVRTQSEESRPQSLQQPATSTTETPASPAHTTPQTQNTSGRRRRAANEDPDEKRRKFLERNRAAASRCRQKRKVWVQSLEKKAEDLSSLNGQLQSEVTLLRNEVAQLKQLLLAHKDCPVTAMQKKSGYHTADKDDSSEDLSVPSSPHTEAIQHSSVSTSNGVSSTSKAEAVATSVLTQMADQSTEPALSQIVMAPPSQAQPSGS
As for B9, the “Z score of condensed fraction” value turned out to be 2.014.

B10: NEUROG3 (protein, UniProt Q9Y4Z2 1-214, looked up)
Neurogenin-3: MTPQPSGAPTVQVTRETERSFPRASEDEVTCPTSAPPSPTRTRGNCAEAEEGGCRGAPRKLRARRGGRSRPKSELALSKQRRSRRKKANDRERNRMHNLNSALDALRGVLPTFPDDAKLTKIETLRFAHNYIWALTQTLRIADHSLYALEPPAPHCGELGSPGGSPGDWGSLYSPVSQAGSLSPAASLEERPGLLGATFSACLSPGSLAFSDFL
For the molecule B10, the “Z score of condensed fraction” value was found to be 1.376.
